From publication PMC6698862

Assays:
[1] = target: human P-cadherin, cell surface-expressed on NCI-H1650 adenocarcinoma cells (Homo sapiens (Human).) (UniProt P22223)
[2] = target: cynomolgus monkey P-cadherin extracellular domain (ECD) (Macaca fascicularis); test: KinExA; recombinant cynomolgus monkey P-cadherin; PBS pH 7.4 with MgCl2, CaCl2 and 1 mg/mL BSA; PMMA beads; 4 °C for 2 h
[3] = target: human P-cadherin expressed on the surface of CHO cells (Homo sapiens) (UniProt P22223); test: KinExA; human P-cadherin expressed on the surface of CHO cells; PBS pH 7.4 with MgCl2, CaCl2 and 1 mg/mL BSA; 4 °C for 2 h
[4] = target: human P-cadherin-Fc (recombinant human P-cadherin ECD protein) (Homo sapiens (Human).) (UniProt P22223); test: ELISA; cadherin-Fc, P-cadherin His or CD3 epsilon-delta protein coated at 1 or 2 µg/mL; sample in 3% milk/PBS + Ca2+ and Mg2+, 1 h at room temperature
[5] = target: soluble human CD3 epsilon-delta heterodimer (Homo sapiens (Human).) (UniProt P07766); test: as above
[6] = target: human P-cadherin, cell surface-expressed on NCI-H1650 adenocarcinoma cells (Homo sapiens (Human).) (UniProt P22223); test: ELISA; cell binding ELISA on a confluent monolayer of NCI-H1650 cells; DART in 3% milk/PBS + Ca2+ and Mg2+, 1 h at room temperature; HRP-labelled secondary antibody
[7] = target: cynomolgus monkey P-cadherin extracellular domain (ECD) (Macaca fascicularis); test: SPR; Biacore 3000 and T-200; P-cadherin or human CD3 protein immobilised on CM5 by amine coupling (~75–300 RU); DART injected in two-fold series 100 to 6.25 nM; TBS-P+ (10 mM Tris pH 7.4, 150 mM NaCl, 2 mM CaCl2, 0.1 mg/mL BSA, 0.05% P20); global 1:1 Langmuir fit
[8] = target: human P-cadherin-Fc (recombinant human P-cadherin ECD protein) (Homo sapiens (Human).) (UniProt P22223); test: as above
[9] = target: soluble human CD3 epsilon-delta heterodimer (Homo sapiens (Human).) (UniProt P07766); test: as above

Chain of UniProt P07766 (P07766 23-126, stated change not applied, chain 1 of 2): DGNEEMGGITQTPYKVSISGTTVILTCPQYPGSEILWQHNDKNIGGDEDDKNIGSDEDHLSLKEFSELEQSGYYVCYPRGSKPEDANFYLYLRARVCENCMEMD
Chain of UniProt P07766 (P04234 22-105, stated change not applied, chain 2 of 2, further chain): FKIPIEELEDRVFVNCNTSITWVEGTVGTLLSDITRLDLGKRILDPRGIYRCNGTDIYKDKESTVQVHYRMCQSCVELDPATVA

- Kd [2]: 0.352 nM
- Kd [3]: 0.176 nM
- EC50 [4]: 0.92 nM
- EC50 [5]: 4.37 nM
- EC50 [6]: 0.593 nM
- Kd [7]: 0.521 nM
- koff [7]: 0.000205 s⁻¹
- kon [7]: 437000 M⁻¹ s⁻¹
- Kd [8]: > 1 nM
- Kd [9]: 11.5 nM
Substance: PF-06671008 (anti-P-cadherin LP-DART #153) (bispecific antibody)
- redirected killing of DU145 cells by human PBMCs (LDH release, 24 h, E:T 30:1), EC50 [1]: 3.1 pM
- redirected killing of HCT-116 cells by human PBMCs (LDH release, 24 h, E:T 30:1), EC50 [1]: 123 pM
